According to patent US20230302116A1:

Legend:
[1] = biological target: nAb1 (Active Motif 91349), human anti-spike neutralizing antibody; test: Octet BLI, target on AHC sensor, spike as analyte
[2] = biological target: nAb3 (Absolute Antibody Ab01680-10.0), human anti-spike neutralizing antibody; test: Octet BLI, target on AHC sensor, spike as analyte
[3] = biological target: nAb2 (Active Motif 91361), human anti-spike neutralizing antibody; test: Octet BLI, target on AHC sensor, spike as analyte
[4] = biological target: nAb1 (Active Motif 91349), human anti-spike neutralizing antibody; test: repeat Octet BLI, target on AHC sensor, spike as analyte
[5] = biological target: nAb3 (Absolute Antibody Ab01680-10.0), human anti-spike neutralizing antibody; test: as above
[6] = biological target: nAb2 (Active Motif 91361), human anti-spike neutralizing antibody; test: as above

For “SPN-C52H8 (SARS-CoV 2 Spike protein with His Tag, Acro Biosystems) (from UniProt P0DTC2 14-1213)”, the kon [1] was 75400 M⁻¹ s⁻¹, the kon [2] was 34300 M⁻¹ s⁻¹ and the kon [3] was 115000 M⁻¹ s⁻¹. It also gave a kon [4] of 18400 M⁻¹ s⁻¹, a kon [5] of 11300 M⁻¹ s⁻¹ and a kon [6] of 54300 M⁻¹ s⁻¹.
